Measurements as given in the supplement of paper PMC12042874.
± gives the uncertainty stated by the source.

Experiment: amyloid nucleation score (Sup35N fusion, yeast selection) (log enrichment); library NNK2; higher = more nucleation; inactive = no reads after selection
Method in brief: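 The nucleation score is the log enrichment of output over input reads, calculated with DiMSum and centred on the mode score of non-aggregating sequences. Sequences with under 100 input reads were excluded. Reads came from Illumina sequencing of plasmid inserts from psi-negative yeast expressing Sup35N fused to peptides of 20 random codons, induced 24 hours with 100 μM copper sulfate and grown 7 days at 30°C without adenine and uracil.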

Substance	amyloid nucleation score
LCCLMDFMITNLITFQRMTS	4.33 ± 0.11
NVLSRYYQPYMAPPENKAWD	-0.277 ± 1
HMSCMSLSVIFDIILNLCSL	6.097 ± 0.06
KSAQEF	0.839 ± 0.43
FPLWSCSHTIINML	5.858 ± 0.037
RRTSYLCWFAGYFGLI	-0.295 ± 0.45
MYLAGHLDCGGY	3.27 ± 0.055
IYHFNFIFNYLMGDPPYRAT	7.778 ± 0.04
FSDDLVRDV	-0.505 ± 0.28
SANHMKTDA	0.436 ± 0.8
PFSLVTSITFFWSIMCIYAM	0.57 ± 0.81
PIFSSKLSGRGR	-0.059 ± 0.55
MTFNVFRNQALRPNCCKPNG	3.09 ± 0.18
FHLIALNCRWADDLFIGSGV	0.374 ± 0.62
WFSRFSFCRKHYLTVNNWGL	-0.566 ± 0.49
WKVRISVFMLEAL	2.77 ± 0.075
LTIDQHKVCLPN	inactive
YSEVTVRSSAAL	0.863 ± 0.29
YSMGAYTVSMGACA	-1.05 ± 1.1
LPGCTTRLHVNLIGALECCK	0.077 ± 0.35
RWSGPGCTLSTGMWTFIPQV	-0.145 ± 0.76
VFNWTNLHYLMAQESVMGY	0.148 ± 0.35
DSASNVW	0.553 ± 0.37
RECDKEFRQSSSCIDRRLGM	-0.156 ± 0.8
IIVGATKMLCCFHVMMVYAP	0.472 ± 0.8

Substance	amyloid nucleation score
EKIFPLMGVKN	inactive
VTLMSV	0.504 ± 0.74
VTRLFGIREFRG	3.65 ± 0.053
DGELVVWFMVMSWWNIKDSK	-0.446 ± 1
GPTRSYRLAASGAGEGCKTW	2.09 ± 0.1
GVTLNSCFFNRVYLTLFGIN	6.946 ± 0.031
RGIFSSVWLLRSIMFGVGSP	-0.016 ± 0.23
VNAEGTVMQSWHCHCDMSVL	6.245 ± 0.043
WGCNSNELSCRLYVVNYSGW	-0.251 ± 0.56
QHSKD	-1.71 ± 0.77
LSVEFARYTG	1.25 ± 0.15
CQAVRRILCYWTAYDIERAV	1.16 ± 0.22
KGFRMRAWWRVGVLDCDAGT	0.082 ± 1.1
WVGSCKNVSFMQVIVWIVRL	-0.121 ± 1.1
VDYKSFRNYTFMDHYCSPYN	1.08 ± 0.18
GDVQLRGMHESPYSPPSQGR	-0.127 ± 0.49
VCFYPECVWQSILVLDFHVG	3.42 ± 0.079
RMLYVFSFTHNKVVIFARTE	-1.11 ± 0.76
TRVGGWKTSG	0.945 ± 0.32
CKWMLEENMGQEADSV	-0.289 ± 0.21
MQYCLGFDLNLRNYICHPGR	7.303 ± 0.063
VLNITEIYFVG	8.125 ± 0.051
LFVVTVTIMCYLSKEYVGLP	0.039 ± 0.51
HTQSLVRVCWIYIRLPRSTP	0.393 ± 0.2
FGYLVIKFVTYVRRRTNTYN	-0.113 ± 0.56

Substance	amyloid nucleation score
SPGIARDLANRILVTIRWVS	1.25 ± 0.32
QVKFLRDFEGFCMMMKHSSR	-0.395 ± 0.26
FVCPFVVCYAGIGGRGGYVM	0.173 ± 1.1
LNSSLLFHNLMVHH	inactive
DSHADAISVAVKVGRWRYND	1.53 ± 0.23
LNKNYWGL	-0.921 ± 0.39
VIWYLRMVSTCNERGVKGIE	inactive
KAWLSSKITKM	0.131 ± 1
GNNRAY	-0.117 ± 0.74
ADFFVLDMWLTYCMKTLFSC	-1.27 ± 0.48
FGMTRRETWNLSGCESITCT	0.593 ± 0.45
DRAYDVCGRSRRWYQKKLGM	-0.667 ± 0.49
TNIQN	-0.69 ± 0.61
LYLTSNIFLCLIYDL	0.576 ± 0.18
PNACPFWCLGRV	-0.439 ± 0.63
QCVVTVCDRL	1.73 ± 0.13
ILIKYVLAPWSSSLTVWGKA	-0.365 ± 0.3
ESSYVRIQ	0.13 ± 0.4
DMNLRLSEWVDFCSIGLFVK	-0.272 ± 0.35
SNAVLWNTGIFIKKYC	-1.38 ± 0.64
YIDGDNYHGILCHSRV	3.86 ± 0.11
CLAISWEGWSNSFGRYVVGW	1.86 ± 0.1
DSNTPHASMRYISFKRFFFV	-0.107 ± 1
NCASWLYGSCACVGLLDLFE	-0.626 ± 0.41
TCCRLILYGILINNLRAWSH	4.01 ± 0.073

Substance	amyloid nucleation score
DKTKE	inactive
HFITCFLDRHGALVCYCSES	4.76 ± 0.11
TVGEPIIRLYRFVRFFCLAN	-1.79 ± 0.78
YNSVKLLEGPFLCSSLTGS	0.444 ± 0.6
DTFPKHSQHAVVKRPQIYID	-1.04 ± 1.1
LFFFSGRWKVNGGIVDGCGV	0.166 ± 0.45
NRTFSQRSVRLVSCPLLSKA	inactive
SLFARRMWGGTVKWYNDRTY	-0.632 ± 0.76
ANLRLYICWGFDKSVINIKS	6.908 ± 0.038
NMFTETDRILVLFIRCLVDC	0.305 ± 1
NQNNDHSTWSIFKLCEVGCL	8.986 ± 0.045
SDLGCLRYRTKGGAVGVDGV	0.653 ± 0.21
WFCVVVMFGRRVDNLDKLVF	-1.33 ± 0.54
MFIMFIAVSFVGRMYGGHRH	-0.44 ± 0.26
YEHLDIGNHKLGRCNRNFIA	-0.191 ± 1.1
SMYSLTVVNLRVRFLVVWGW	0.615 ± 0.5
GIPCGGMFCRIGS	0.524 ± 0.81
SYLHNSN	-1.26 ± 0.78
ANAAV	1.12 ± 0.61
DWQRRFAQIMIRGFNVILVT	0.097 ± 1.1
YMCQRTETMSVSTWGKILCV	inactive
SRYGWMNRWKQPVQVVNPGF	0.031 ± 0.38
AKGMGPKNDTTYYFPVSVFE	-0.213 ± 0.48
LHSVMMLGGRIRPHPQVHSL	0.471 ± 0.26
CVSSARNIHFNGVVKCVRYR	2.79 ± 0.054

Substance	amyloid nucleation score
YCLVSIKMCYGYVVGSLVGW	2.63 ± 0.068
YSFCKCVIVGIWFRLGWCQA	inactive
CCPASYMQYEFLGRMSGGCW	2.82 ± 0.15
LSLKVKYFQKDTRVGNGEHK	2.15 ± 0.076
KGGWYNNYGAVNKNGWCSDK	-0.501 ± 1.1
FCSFSMFRLAS	0.606 ± 0.8
RPWLVY	0.026 ± 1.1
CLVVLISVVPMVGSLFSRCG	inactive
AAILFSGDVLCLLRCYIAIK	-0.291 ± 0.74
VGSLYICDLAPGKHKYCSVV	0.266 ± 0.56
RCQTFLGKETPSFYRKIVKF	-1.02 ± 0.55
PTAVNSTMYSMYRTGNL	-0.294 ± 0.34
RKYTCSFRLFYRGVCFVT	-1.16 ± 0.76
WVNSKLGLKVSLIEAGVEVS	-0.116 ± 0.43
GYAVRRYDLMNLFRSMWASC	-0.739 ± 0.79
FISMLAISDIRHALDWHTSV	0.979 ± 0.17
PFGKGKEHIKL	inactive
CIYHGANRIYLSDVA	0.381 ± 0.6
AMLLNILVPYVYSKTGRGPV	1.88 ± 0.33
QFLAIFCSIT	7.684 ± 0.043
SMSKYAISYKLVVRKKYRSG	1.83 ± 0.11
YPPSVLFVSALHQVGTMSGG	0.003 ± 0.3
YYNSCKVN	-1.35 ± 1.1
WNLRMYLNMGYMVLFNIQF	3.64 ± 0.099
GNYFPYFQVWSISRFLMSIS	inactive

Substance	amyloid nucleation score
IYVRLLDSDTSYWVQFVFLQ	inactive
YQMADVPLNRMGHYPVYEGW	-0.845 ± 0.76
FTGRETFQRKRFAAVLSSSV	-0.062 ± 0.65
HCGFDQVLEGLTLR	0.097 ± 0.42
YVLQYTVKSDVWGTKAIRRP	0.007 ± 0.79
SWFRMSVWSSLRAHMNASNT	-0.198 ± 0.28
SNVLTVIVCYTKAWINKSFM	inactive
FMKSNWIGTT	-0.909 ± 0.39
ANSVCDNVVTVSLLRLYMVL	5.39 ± 0.071
ANTCVPPLLRMFPLRGRTHI	-0.184 ± 1.1
NSYWWFANK	2.54 ± 0.08
VGFLW	2.22 ± 0.13
SNSGINHIRCCLYPLFYLIM	2.35 ± 0.13
ATRCFSNWDTSACYMWKC	8.074 ± 0.061
VWFFGSYHVCWDCTF	0.378 ± 0.74
IRTLMYISHSAGGYLL	-0.576 ± 0.44
RLGIFYKVDLSLVGKVPNST	2.79 ± 0.17
VIKMSVNNVELVGMDHYSCV	0.606 ± 0.23
PRCNGHY	inactive
LFWGWITFTKECTNWGATIG	0.895 ± 0.58
FRHCTFRLFHAHK	-0.378 ± 1
SCWRRMSSITPG	1.68 ± 0.47
NELLNTWRLLSCPWRIWSLR	0.67 ± 0.26
NYSDFVVMTRSVLFWYCDQR	-0.424 ± 0.26
AMDASR	1.7 ± 0.12

Substance	amyloid nucleation score
IFKQVTIYLYGGRSLLGSRR	-0.507 ± 0.54
VGTISVFIIFHASHVGILHS	-1.65 ± 0.53
TSSCFDCSFNMEFLMVLVSF	1.52 ± 0.2
TRNWRGYVCYSEVIIVVKQE	-0.839 ± 0.78
KCVLLWWVIKYVCVDTDAAV	-0.174 ± 0.74
LTRKKKMQFF	inactive
RWITSAY	0.709 ± 0.62
SIRLYHYKFALRERKV	5.345 ± 0.053
HAKTWM	0.066 ± 1
YVYERIDSERRTRPCKKKMY	inactive
FSAVHAHQQNLLVVFYTCCA	3.97 ± 0.08
NHRKVLMVVVLAVHNMGCCI	3.75 ± 0.15
TMYIWRL	6.58 ± 0.039
WAGRCDHK	0.227 ± 0.25
LTFYCME	-0.465 ± 0.45
NSLMSFWVSVV	0.208 ± 0.34
IRGSSIEKNRMWHVGLSLTW	-0.809 ± 1.1
NSFFGLTVSKEEYLCFFYMF	inactive
FPHLFKSKNPSRNMNSTSPG	inactive
LSRDVHCSRFSHREGLITRT	0.767 ± 0.74
YFPVIRRDAAFYPFSAPYFN	-2.05 ± 0.77
